# *1 amine or outer side, *2 acyl side, *3 side chain or, on linkers, in order; H or OH if unused. Where no end group is shown, it is not given here. Side-chain parts run from the residue outwards. [ ]: non-standard residue; d: D form. The star is where a group is joined. C18 diacid = O=C(O)CCCCCCCCCCCCCCCCC(=O)*; γGlu = O=C(O)[C@H](CCC(=O)[*:2])N[*:1]; Desaminohistidyl = O=C(CCc1c[nH]cn1)*; Ac4c = NC1(C(=O)O)CCC1; AEEA = NCCOCCOCC(=O)O; Aib = CC(C)(N)C(=O)O
# B1: N^ε34-[2-[2-[2-[[2-[2-[2-[[(4S)-4-carboxy-4-[[(4S)-4-carboxy-4-[[(4S)-4-carboxy-4-(17-carboxyheptadecanoylamino)butanoyl]amino]butanoyl]amino]butanoyl]amino]eth … (peptide)
# peptide: [Desaminohistidyl][Aib]HGTFTSDVSKYLEEQAAREFIAWLLK([Ado-Ado-γGlu-γGlu-γGlu-C18 diacid])T
# notes: Named as peptide, not peptide amide (C-terminal acid)
# B2: N^ε34-[2-[[(2S)-2-[[(2S)-4-carboxy-2-[[2-[[(2S)-2-[[(4S)-4-carboxy-4-[[(4S)-4-carboxy-4-(17-carboxyheptadecanoylamino)butanoyl]amino]butanoyl]amino]-3-hydroxypr … (peptide)
# peptide: [Desaminohistidyl][Aib]HGTFTSDVSKYLEEQAAREFIAWLLK([Gly-Ser-Glu-Gly-Ser-γGlu-γGlu-C18 diacid])T
# notes: as for B1
# B3: N^ε23-[2-[2-[2-[[2-[2-[2-[[(4S)-4-carboxy-4-(17-carboxyheptadecanoylamino)butanoyl]amino]ethoxy]ethoxy]acetyl]amino]ethoxy]ethoxy]acetyl]-[Imp7,Aib8,His9,Lys18, … (peptide)
# peptide: [Desaminohistidyl][Aib]HGTFTSDVSKYLEGK([AEEA-AEEA-γGlu-C18 diacid])AAREFIAWLLKT-NH2
# SMILES: CC[C@H](C)[C@H](NC(=O)[C@H](Cc1ccccc1)NC(=O)[C@H](CCC(=O)O)NC(=O)[C@H](CCCNC(=N)N)NC(=O)[C@H](C)NC(=O)[C@H](C)NC(=O)[C@H](CCCCNC(=O)COCCOCCNC(=O)COCCOCCNC(=O)CC[C@H](NC(=O)CCCCCCCCCCCCCCCCC(=O)O)C(=O)O)NC(=O)CNC(=O)[C@H](CCC(=O)O)NC(=O)[C@H](CC(C)C)NC(=O)[C@H](Cc1ccc(O)cc1)NC(=O)[C@H](CCCCN)NC(=O)[C@H](CO)NC(=O)[C@@H](NC(=O)[C@H](CC(=O)O)NC(=O)[C@H](CO)NC(=O)[C@@H](NC(=O)[C@H](Cc1ccccc1)NC(=O)[C@@H](NC(=O)CNC(=O)[C@H](Cc1c[nH]cn1)NC(=O)C(C)(C)NC(=O)CCc1c[nH]cn1)[C@@H](C)O)[C@@H](C)O)C(C)C)C(=O)N[C@@H](C)C(=O)N[C@@H](Cc1c[nH]c2ccccc12)C(=O)N[C@@H](CC(C)C)C(=O)N[C@@H](CC(C)C)C(=O)N[C@@H](CCCCN)C(=O)N[C@H](C(N)=O)[C@@H](C)O
# B4: N^ε22-[(4S)-4-carboxy-4-[[(4S)-4-carboxy-4-[[2-[2-[2-[[2-[2-[2-[[(4S)-4-carboxy-4-(17-carboxyheptadecanoylamino)butanoyl]amino]ethoxy]ethoxy]acetyl]amino]ethoxy … (peptide)
# peptide: [Desaminohistidyl][Ac4c]HGTFTSDVSKYLEK([γGlu-γGlu-AEEA-AEEA-γGlu-C18 diacid])RAAREFIAWLLKT-NH2
# SMILES: CC[C@H](C)[C@H](NC(=O)[C@H](Cc1ccccc1)NC(=O)[C@H](CCC(=O)O)NC(=O)[C@H](CCCNC(=N)N)NC(=O)[C@H](C)NC(=O)[C@H](C)NC(=O)[C@H](CCCNC(=N)N)NC(=O)[C@H](CCCCNC(=O)CC[C@H](NC(=O)CC[C@H](NC(=O)COCCOCCNC(=O)COCCOCCNC(=O)CC[C@H](NC(=O)CCCCCCCCCCCCCCCCC(=O)O)C(=O)O)C(=O)O)C(=O)O)NC(=O)[C@H](CCC(=O)O)NC(=O)[C@H](CC(C)C)NC(=O)[C@H](Cc1ccc(O)cc1)NC(=O)[C@H](CCCCN)NC(=O)[C@H](CO)NC(=O)[C@@H](NC(=O)[C@H](CC(=O)O)NC(=O)[C@H](CO)NC(=O)[C@@H](NC(=O)[C@H](Cc1ccccc1)NC(=O)[C@@H](NC(=O)CNC(=O)[C@H](Cc1c[nH]cn1)NC(=O)C1(NC(=O)CCc2c[nH]cn2)CCC1)[C@@H](C)O)[C@@H](C)O)C(C)C)C(=O)N[C@@H](C)C(=O)N[C@@H](Cc1c[nH]c2ccccc12)C(=O)N[C@@H](CC(C)C)C(=O)N[C@@H](CC(C)C)C(=O)N[C@@H](CCCCN)C(=O)N[C@H](C(N)=O)[C@@H](C)O
# B5: N^ε22-[(4S)-4-carboxy-4-[[(4S)-4-carboxy-4-[[2-[2-[2-[[2-[2-[2-[[(4S)-4-carboxy-4-(17-carboxyheptadecanoylamino)butanoyl]amino]ethoxy]ethoxy]acetyl]amino]ethoxy … (peptide)
# peptide: [Desaminohistidyl][Ac4c]HGTFTSDVSKYLEK([γGlu-γGlu-AEEA-AEEA-γGlu-C18 diacid])QAAREFIAWLLKT-NH2
# SMILES: CC[C@H](C)[C@H](NC(=O)[C@H](Cc1ccccc1)NC(=O)[C@H](CCC(=O)O)NC(=O)[C@H](CCCNC(=N)N)NC(=O)[C@H](C)NC(=O)[C@H](C)NC(=O)[C@H](CCC(N)=O)NC(=O)[C@H](CCCCNC(=O)CC[C@H](NC(=O)CC[C@H](NC(=O)COCCOCCNC(=O)COCCOCCNC(=O)CC[C@H](NC(=O)CCCCCCCCCCCCCCCCC(=O)O)C(=O)O)C(=O)O)C(=O)O)NC(=O)[C@H](CCC(=O)O)NC(=O)[C@H](CC(C)C)NC(=O)[C@H](Cc1ccc(O)cc1)NC(=O)[C@H](CCCCN)NC(=O)[C@H](CO)NC(=O)[C@@H](NC(=O)[C@H](CC(=O)O)NC(=O)[C@H](CO)NC(=O)[C@@H](NC(=O)[C@H](Cc1ccccc1)NC(=O)[C@@H](NC(=O)CNC(=O)[C@H](Cc1c[nH]cn1)NC(=O)C1(NC(=O)CCc2c[nH]cn2)CCC1)[C@@H](C)O)[C@@H](C)O)C(C)C)C(=O)N[C@@H](C)C(=O)N[C@@H](Cc1c[nH]c2ccccc12)C(=O)N[C@@H](CC(C)C)C(=O)N[C@@H](CC(C)C)C(=O)N[C@@H](CCCCN)C(=O)N[C@H](C(N)=O)[C@@H](C)O
# B6: N^ε23-[2-[2-[2-[[2-[2-[2-[[(4S)-4-carboxy-4-(17-carboxyheptadecanoylamino)butanoyl]amino]ethoxy]ethoxy]acetyl]amino]ethoxy]ethoxy]acetyl]-[Imp7,Aib8,His9,Tyr16, … (peptide)
# peptide: [Desaminohistidyl][Aib]HGTFTSDYSKYLEGK([AEEA-AEEA-γGlu-C18 diacid])AAREFIAWLLKT-NH2
# SMILES: CC[C@H](C)[C@H](NC(=O)[C@H](Cc1ccccc1)NC(=O)[C@H](CCC(=O)O)NC(=O)[C@H](CCCNC(=N)N)NC(=O)[C@H](C)NC(=O)[C@H](C)NC(=O)[C@H](CCCCNC(=O)COCCOCCNC(=O)COCCOCCNC(=O)CC[C@H](NC(=O)CCCCCCCCCCCCCCCCC(=O)O)C(=O)O)NC(=O)CNC(=O)[C@H](CCC(=O)O)NC(=O)[C@H](CC(C)C)NC(=O)[C@H](Cc1ccc(O)cc1)NC(=O)[C@H](CCCCN)NC(=O)[C@H](CO)NC(=O)[C@H](Cc1ccc(O)cc1)NC(=O)[C@H](CC(=O)O)NC(=O)[C@H](CO)NC(=O)[C@@H](NC(=O)[C@H](Cc1ccccc1)NC(=O)[C@@H](NC(=O)CNC(=O)[C@H](Cc1c[nH]cn1)NC(=O)C(C)(C)NC(=O)CCc1c[nH]cn1)[C@@H](C)O)[C@@H](C)O)C(=O)N[C@@H](C)C(=O)N[C@@H](Cc1c[nH]c2ccccc12)C(=O)N[C@@H](CC(C)C)C(=O)N[C@@H](CC(C)C)C(=O)N[C@@H](CCCCN)C(=O)N[C@H](C(N)=O)[C@@H](C)O
# Target: T1, human glucagon receptor (human, UniProt P47871 26-477)
# T1 construct: whole, on cells; reporter assay on whole cells
# T1 sequence (P47871 26-477): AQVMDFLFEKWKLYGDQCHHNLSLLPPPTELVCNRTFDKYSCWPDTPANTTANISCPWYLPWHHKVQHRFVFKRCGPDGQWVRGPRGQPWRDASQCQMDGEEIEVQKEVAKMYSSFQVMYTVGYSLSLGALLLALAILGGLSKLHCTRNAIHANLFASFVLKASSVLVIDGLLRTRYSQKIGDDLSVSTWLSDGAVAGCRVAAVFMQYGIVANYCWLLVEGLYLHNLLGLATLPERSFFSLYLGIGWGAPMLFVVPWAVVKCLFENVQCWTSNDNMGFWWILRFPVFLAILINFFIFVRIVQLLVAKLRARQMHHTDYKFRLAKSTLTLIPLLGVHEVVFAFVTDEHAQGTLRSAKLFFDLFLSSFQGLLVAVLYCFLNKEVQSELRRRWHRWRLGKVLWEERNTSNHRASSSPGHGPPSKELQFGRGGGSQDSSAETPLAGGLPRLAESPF
# Test: SPA displacement of [125I]-glucagon from human glucagon receptor BHK membranes
# Description: 1. For the receptor binding assay 50 μl of the assay buffer was added to each well of an assay plate. [0603] 2. Test compounds were serially diluted to give the following concentrations: 8×10EE-7 M, 8×10EE-8 M, 8×10EE-9 M, 8×10EE-10 M, 8×10EE-11 M, 8×10EE-12 M and 8×10EE-13 M. Twenty-five μl were added to appropriate wells in the assay plate. [0604] 3. Cell membrane aliquots were thawed and diluted to their working concentration. Fifty μl were added to each well in the assay plate. [0605] 4. WGA SPA beads were suspended in assay buffer at 20 mg/ml. The suspension was diluted to 10 mg/ml in assay buffer just prior to addition to the assay plate. Fifty μl were added to each well in the assay plate. [0606] 5. […] A 25 μl aliquot was reserved for measuring total counts/well. […] 6. The assay plate was incubated for 2 h at 25° C. [0608] 7. The assay plate was centrifuged for 10 min at 1500 rpm. [0609] 8. The assay plate was read in a Perkin Elmer TopCount NXT instrument.
row,Binder,IC50 [nM]
1,B1,28.1
2,[Desaminohistidyl][Aib]HGTFTSDVSKYLEK([γGlu-γGlu-AEEA-AEEA-γGlu-C18 diacid])QAAREFIAWLLKGGG,56
3,[Desaminohistidyl][Aib]HGTFTSDYSKYLEEQAAREFIAWLLKGK([Gly-Ser-Glu-Gly-Ser-γGlu-γGlu-C18 diacid])G,31.1
4,[Desaminohistidyl]AHGTFTSDVSRYLEGRAAREFIAWLLK([Ado-Ado-γGlu-γGlu-γGlu-C18 diacid]),43.4
5,B2,18.8
6,[Desaminohistidyl]AHGTFTSDVSKYLEGRAAREFIAWLLK([Ado-Ado-γGlu-γGlu-γGlu-C18 diacid])GGG,69.5
7,[Desaminohistidyl][Aib]HGTFTSDVSKYLEEQAAREFIAWLLK([Gly-Ser-Glu-Gly-Ser-γGlu-γGlu-C18 diacid])T-NH2,3.2
8,B3,80.2
9,B4,14.1
10,B5,17.9
11,B6,51
12,[Desaminohistidyl][Aib]HGTFTSDLSKYLEEQAAREFIAWLLK([Ado-Ado-γGlu-γGlu-C18 diacid])T-NH2,5.1

# Target: T2, human GLP-1 receptor (human, UniProt P43220 24-463)
# T2 construct: whole, on cells; reporter assay on whole cells
# Test: SPA displacement of [125I]GLP-1(7-36)NH2 from hGLP-1R BHK membranes
# Description: The GLP-1 receptor binding of each derivatives were determined with competitive binding, displacing [¹²⁵I]GLP-1 bound to GLP-1 receptors expressed in cell membranes associated with wheat germ agglutinin (WGA) scintillation proximity assay (SPA) beads. Each derivative was added in a series of concentrations to isolated membranes comprising the human GLP-1 receptor and displacement of the labelled radioligand was monitored. The receptor binding was reported as the concentration at which half of the labelled ligand is displaced from the receptor, the IC⁵⁰ value.
# 1. For the receptor binding assay 50 μl of the assay buffer was added to each well of an assay plate. [0588] 2. Test compounds were serially diluted to give the following concentrations: 8×10EE-7 M, 8×10EE-8 M, 8×10EE-9 M, 8×10EE-10 M, 8×10EE-11 M, 8×10EE-12 M and 8×10EE-13 M. Twenty-five μl were added to appropriate wells in the assay plate. [0589] 3. Cell membrane aliquots were thawed and diluted to their working concentration. Fifty μl were added to each well in the assay plate. [0590] 4. WGA SPA beads were suspended in assay buffer at 20 mg/ml. The suspension was diluted to 10 mg/ml in assay buffer just prior to addition to the assay plate. Fifty μl were added to each well in the assay plate. [0591] 5. […] A 25 μl aliquot was reserved for measuring total counts/well. [0592] 6. The assay plate was incubated for 2 h at 30° C. [0593] 7. The assay plate was centrifuged for 10 min. [0594] 8. The assay plate was read in a Perkin Elmer TopCount NXT instrument.
row,Binder,IC50 [nM]
1,B1,4.6
2,[Desaminohistidyl][Aib]HGTFTSDVSKYLEK([γGlu-γGlu-AEEA-AEEA-γGlu-C18 diacid])QAAREFIAWLLKGGG,0.5
3,[Desaminohistidyl][Aib]HGTFTSDYSKYLEEQAAREFIAWLLKGK([Gly-Ser-Glu-Gly-Ser-γGlu-γGlu-C18 diacid])G,3.2
4,[Desaminohistidyl]AHGTFTSDVSRYLEGRAAREFIAWLLK([Ado-Ado-γGlu-γGlu-γGlu-C18 diacid]),19
5,B2,6.9
6,[Desaminohistidyl]AHGTFTSDVSKYLEGRAAREFIAWLLK([Ado-Ado-γGlu-γGlu-γGlu-C18 diacid])GGG,0.9
7,[Desaminohistidyl][Aib]HGTFTSDVSKYLEEQAAREFIAWLLK([Gly-Ser-Glu-Gly-Ser-γGlu-γGlu-C18 diacid])T-NH2,0.4
8,B3,1.9
9,B4,0.2
10,B5,0.2
11,B6,13.1
12,[Desaminohistidyl][Aib]HGTFTSDLSKYLEEQAAREFIAWLLK([Ado-Ado-γGlu-γGlu-C18 diacid])T-NH2,1.1

# Target: T1, human glucagon receptor
# Test: cell-based or functional assay
row,Binder,"EC50 GlucagonR [pM], CRE luciferase reporter gene assay [pM]"
1,[Desaminohistidyl][Aib]HGTFTSDVSKYLEEQAAREFIAWLLK([Gly-Ser-Glu-Gly-Ser-γGlu-γGlu-C18 diacid])T-NH2,40.7
2,[Desaminohistidyl][Aib]HGTFTSDLSKYLEEQAAREFIAWLLK([Ado-Ado-γGlu-γGlu-C18 diacid])T-NH2,54.2

# Target: T2, human GLP-1 receptor
# Test: cell-based or functional assay
row,Binder,"EC50 GLP-1R [pM], CRE luciferase reporter gene assay [pM]"
1,[Desaminohistidyl][Aib]HGTFTSDVSKYLEEQAAREFIAWLLK([Gly-Ser-Glu-Gly-Ser-γGlu-γGlu-C18 diacid])T-NH2,5
2,[Desaminohistidyl][Aib]HGTFTSDLSKYLEEQAAREFIAWLLK([Ado-Ado-γGlu-γGlu-C18 diacid])T-NH2,14.7

# Source: patent publication US20160102129A1 (Novo Nordisk, published 2016)
